For this assay, the target named is 重组KPC-2蛋白 (recombinant KPC-2 protein, Klebsiella pneumoniae carbapenemase KPC-2) (Klebsiella pneumoniae (肺炎克雷伯菌)) (UniProt Q848S6). Briefly: indirect ELISA, KPC-2 coated at 100 ng/well, antibody diluted 1:10000 to 1:2560000.
Sequence of UniProt Q848S6 (Q848S6 25-293): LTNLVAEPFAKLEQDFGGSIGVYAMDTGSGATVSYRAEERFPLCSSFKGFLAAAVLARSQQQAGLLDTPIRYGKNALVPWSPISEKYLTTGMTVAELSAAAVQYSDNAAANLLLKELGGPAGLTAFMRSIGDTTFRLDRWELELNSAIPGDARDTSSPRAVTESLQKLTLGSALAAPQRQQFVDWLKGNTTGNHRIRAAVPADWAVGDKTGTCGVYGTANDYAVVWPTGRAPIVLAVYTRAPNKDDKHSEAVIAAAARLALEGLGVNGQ

B1: KPC-2单克隆抗体 4B2 (antibody, V domains shown)
VH: QVQLQQPGAELVKPGASVKMSCKASGYTFTSYNMHWVKQTPGQGLEWIGGLYPGNGDTSYNQKFKGRATLTADKSSSTAYMKLSSLTSEDSAVYFCARVGYGHYYFDYWGQGTTLTVSS
VL: DIKMTQSPSSMYASLGERVTIICKASQDINNYLSWFQQKPGKSPKTLIYRANRLAEGVPSRFSGIGSGQDYSLTISSLEYEDMGIYYCLQYDEFPLTFGAGTKLELK
With B1, the 效价 (ELISA titer, highest positive dilution) (dilution factor) is above 2e+06.

B2: KPC-2单克隆抗体 1D7 (antibody, V domains shown)
VH: EVQLQQSGPELVKPGASMKISCKASGYSFTGYTMNWVKQSHGKNLEWIGLINPYNGVTTYNQRFKDKATLTVDKSSITAYMELLSLTSEDSAVYYCARRGLLGLYAMDYWGQGTSVTVSS
VL: DVQITQSPSYLAASPGETITINCRASESIFKFLAWYQEKPGKTNRLLIYSGSTLQSGIPSRFSGSGSGTDFTLTISSLEPEDFAMYYCQQHNEYPLTFGAGTKLELK
In the case of B2, the 效价 (ELISA titer, highest positive dilution) (dilution factor) is above 2e+06.

These data come from patent CN113150138A.
